How the values were obtained:
[1] = Intact half-life during simulated gastric fluid (SGF) digestion; settings: SGF pH 1.5, pepsin:polypeptide 1:20 w/w, 37° C.; produced in E. coli unless otherwise noted
[2] = Thermostability, ProteoStat Thermal Shift Stability Kit, temperature of aggregation; assay type: physicochemical; settings: pH 7.1; heated from 25° C. to 95° C.
Experimental: Thermostability. The thermostability of proteins in a buffer cocktail of Citric Acid and Dibasic Sodium Phosphate over a pH range of 2.8 to 7.1 (preparation described above in Table E31B) was determined using the ProteoStat® Thermal Shift Stability Kit (Enzo Life Sciences) according to the manufacturer's standard protocol. Briefly, protein solutions (˜10 mg/ml) containing 1× ProteoStat TS Detection Reagent were heated from 25° C. to 95° C. at a rate of 0.5° C. per 30 sec using a real-time PCR (rtPCR) thermocycler (BioRad) equipped with a plate reader (SynergyMx, Biotek) while monitoring the fluorescence with a Texas Red filter.

[3] = Solubility of proteins (lyophilized/reconstituted or ultrafiltered); settings: produced in E. coli unless otherwise noted
Experimental: Solubility. […] Protein samples were dried by lyophilization on a FreeZone Freeze Dry System (Labconco) using the manufacturer's standard protocol and then resuspended in buffer to the desired concentration. Centrifugal and tangential ultrafiltration were used to selectively remove buffer from the protein sample until the desired concentration was reached. Centrifugal ultrafiltration of protein solutions was performed by centrifugation (10,000×g) of 10 mg of protein in an Amicon centrifugal filter (Millipore) with a molecular weight cutoff of 3 kDa, 10 kDa, or 30 kDa, depending on the protein size, until the desired contrentration was reached. Ultrafiltration of protein solutions was performed on Hydrosart ultrafiltration cassettes (Sartorius Stedim, Bohemia, NY) with a molecular weight cutoff of 3 kDa, 10 kDa, or 30 kDa, depending on the protein size, at a cross flow rate of 12 L/m2/min. For most processes, transmembrane pressure was maintained at 20 psi and performed until the desired contrentration was reached.
The protein concentration of the above samples was measured by one or a combination of the following methods: Coomassie Plus Protein Assay, absorbance at 280 nm (A280), and total amino acid analysis. Coomassie Plus Protein Assays (Pierce) were performed according to the manufacturer's protocol. Absorbance at 280 nm was measured on a Nanodrop 2000 UV-Vis spectrophotometer. Protein concentration was determined using the A280 value and molar extinction coefficient, which was calculated by primary amino acid sequence using ProtParam (Gasteiger, Elisabeth, et al. The proteomics protocols handbook. Humana Press, 2005. 571-607.). Total amino acids were analyzed by HPLC after acid hydrolysis as described in Henderson, J. W., et al. Agilent Technologies (2010).

[4] = tested on: kinase activity of SEQID-00338 (AMP + ATP→2ADP); test: Kinase activity of SEQID-00338 and mutants, ADP-Glo Max Assay; assay type: biochemical; settings: 7 μg/mL, 30 minute reaction at 30° C.; N=2
Experimental: Determination of the kinase activity of SEQID-00338. The ADP-Glo™ Max Assay was obtained from Promega (Catalog number V7001, Madison, WI). Adenosine Monophosphate was obtained from Sigma-Aldrich (Catalog number A1752, St. Louis, MO). 5× Kinase Buffer was prepared w/1.211 g Tris Base (Catalog number BP152-2, Fisher Bioreagents, Pittsburgh, PA), 692 μL 12% hydrochloric acid solution (Catalog number BDH3026-500MLP, VWR, Radnor, PA), 10.0 mL 500 mM magnesium chloride (Catalog number BP214-500, Fisher Bioreagents, Pittsburgh, PA) and the volume brought to 50 mL with MilliQ water and filtered through 0.22 μm PES filter (Catalog number SCGP00525, Millipore, Billerica, MA) into a sterile 50 mL tube.
Twelve his-tag purified mutant proteins and the wild-type protein at 35 μg/mL in Tris buffer were serially diluted to 7.0 and 1.4 μg/mL. Prepared kinase reaction mix at 0.5 mM AMP/0.5 mM ATP to test for activity and at 0 mM AMP/0 mM ATP to assay background activity by diluting 5× Kinase Buffer with appropriate volumes of 10 mM AMP and 10 mM ATP in MilliQ water. Duplicate reactions were prepared by mixing 9 μL of the reaction mixture with 6 μL of diluted SEQID-00338, mixing by pipetting up and down and dispensing 5 μL into a 384-well white OptiPlate (PerkinElmer, Waltham, MA). An ADP standard curve was prepared by serially diluting 4 mM ADP in MilliQ water and adding kinase buffer to 1× for a standard at 0.0005, 0.001, 0.005, 0.01, 0.05, 0.1, 1.5, 1, 2, 3, and 4 mM ADP. The plate was covered with a foil plate seal and incubated at 30° C. for 30 min. Following the kinase reaction, 5 μL of ADP-Glo™ Reagent was added to each well. The plate was sealed with a foil plate seal and placed on a horizontal plate shaker at 450 rpm for 2 minutes at room temperature. The plate was removed from the plate shaker and incubated at room temperature for 40 minutes. The plate was then centrifuged for 15 seconds at 1109× rcf and 10 μL of ADP-Glo™ Max Detection Reagent was added. The plate was sealed with a foil plate seal and shaken on a horizontal plate shaker at 450 rpm at room temperature for 2 minutes. The plate was then removed from the plate shaker and incubated at room temperature for 60 minutes. The plate was centrifuged for 15 seconds at 1109× rcf and the luminescence read on an EnspireAlpha plate reader (PerkinElmer, Waltham, MA).
The ADP standard curve was used to determine the concentration of ADP in sample wells in the presence or absence of substrate. Concentrations were determined by performing a non-linear 4 parameter logistic on the X=log(X) transformed ADP standard luminescence values. […] Where the background concentration of ADP in the absence of substrate was calculable the average of those values were subtracted from the calculated ADP concentration in the substrate incubated wells. Activity knock out was calculated by percentage activity relative to purified wild-type protein at the same concentration.

[5] = pH solubility screen in Citric Acid / Dibasic Sodium Phosphate buffers; assay type: physicochemical
Experimental: pH Solubility. […] Protein was either lyophilized and then resuspended in buffer cocktail mixtures, or concentrated and then spiked into buffer cocktail mixtures at a final protein concentration of 5 to 30 mg/ml. As a control, protein was also dissolved in a solution of 8 M urea. Protein solutions were shaken for 10 min at room temperature. Turbidity of proteins was determined by measuring the absorbance of protein solutions at 650 nm. The protein solution was then centrifuged for 10 min at 1100×g to pellet undissolved or precipitated protein. The soluble protein fraction (supernatant) was sampled and protein concentration was measured by one or more of the following methods: Coomassie Plus Protein Assay (Pierce), Chip electrophoresis, gel electrophoresis, and/or absorbance at 280 nm. The pH range over which select proteins remained greater than 80% soluble as determined by Bradford and the A650 value are listed in Table E31C.

Molecule	SGF Half-life (t½) [1]	Tagg (pH 7.1) [2]	Solubility [3]	AVG proportion activity, percentage AMP + ATP→2ADP converted relative to wild-type [4]	further results
SEQID-00099: nutritive polypeptide (protein, listed as Thermosynechococcus elongatus) MNQSEILEKVKAIVADQLSVDPEKVVPEASFAEDLNADSLDSVELIMALEEEFGVEIPDEEAEKLKTVQDVLDFINNKVAA	1 min	64	91 mg/mL		
SEQID-00102: nutritive polypeptide (protein, listed as Lactobacillus johnsonii) MTEEEIFNKIADMISERFSIDRDKITKDLNFQNDLDADSIDFVELVMDLEDTFGAEIPDDDAEKLQTVGEAVEYIKSHQN	0.6 min	>95	120 mg/mL		
R134M: single amino acid mutant of SEQID-00338 at substrate binding position 134 (protein, listed as Saccharomyces cerevisiae, strain ATCC 204508 / S288c) MSSSESIRMVLIGPPGAGKGTQAPNLQERFHAAHLATGDMLRSQIAKGTQLGLEAKKIMDQGGLVSDDIMVNMIKDELTNNPACKNGFILDGFPRTIPQAEKLDQMLKEQGTPLEKAIELKVDDELLVARITGMLIHPASGRSYHKIFNPPKEDMKDDVTGEALVQRSDDNADALKKRLAAYHAQTEPIVDFYKKTGIWAGVDASQPPATVWADILNKLGKD				0.3%	
R42G: single amino acid mutant of SEQID-00338 at substrate binding position 42 (protein, listed as Saccharomyces cerevisiae, strain ATCC 204508 / S288c) MSSSESIRMVLIGPPGAGKGTQAPNLQERFHAAHLATGDMLGSQIAKGTQLGLEAKKIMDQGGLVSDDIMVNMIKDELTNNPACKNGFILDGFPRTIPQAEKLDQMLKEQGTPLEKAIELKVDDELLVARITGRLIHPASGRSYHKIFNPPKEDMKDDVTGEALVQRSDDNADALKKRLAAYHAQTEPIVDFYKKTGIWAGVDASQPPATVWADILNKLGKD				1.2%	
R42K: single amino acid mutant of SEQID-00338 at substrate binding position 42 (protein, listed as Saccharomyces cerevisiae, strain ATCC 204508 / S288c) MSSSESIRMVLIGPPGAGKGTQAPNLQERFHAAHLATGDMLKSQIAKGTQLGLEAKKIMDQGGLVSDDIMVNMIKDELTNNPACKNGFILDGFPRTIPQAEKLDQMLKEQGTPLEKAIELKVDDELLVARITGRLIHPASGRSYHKIFNPPKEDMKDDVTGEALVQRSDDNADALKKRLAAYHAQTEPIVDFYKKTGIWAGVDASQPPATVWADILNKLGKD				2.2%	
R42I: single amino acid mutant of SEQID-00338 at substrate binding position 42 (protein, listed as Saccharomyces cerevisiae, strain ATCC 204508 / S288c) MSSSESIRMVLIGPPGAGKGTQAPNLQERFHAAHLATGDMLISQIAKGTQLGLEAKKIMDQGGLVSDDIMVNMIKDELTNNPACKNGFILDGFPRTIPQAEKLDQMLKEQGTPLEKAIELKVDDELLVARITGRLIHPASGRSYHKIFNPPKEDMKDDVTGEALVQRSDDNADALKKRLAAYHAQTEPIVDFYKKTGIWAGVDASQPPATVWADILNKLGKD				1.5%	
R42A: single amino acid mutant of SEQID-00338 at substrate binding position 42 (protein, listed as Saccharomyces cerevisiae, strain ATCC 204508 / S288c) MSSSESIRMVLIGPPGAGKGTQAPNLQERFHAAHLATGDMLASQIAKGTQLGLEAKKIMDQGGLVSDDIMVNMIKDELTNNPACKNGFILDGFPRTIPQAEKLDQMLKEQGTPLEKAIELKVDDELLVARITGRLIHPASGRSYHKIFNPPKEDMKDDVTGEALVQRSDDNADALKKRLAAYHAQTEPIVDFYKKTGIWAGVDASQPPATVWADILNKLGKD				0.9%	
R42C: single amino acid mutant of SEQID-00338 at substrate binding position 42 (protein, listed as Saccharomyces cerevisiae, strain ATCC 204508 / S288c) MSSSESIRMVLIGPPGAGKGTQAPNLQERFHAAHLATGDMLCSQIAKGTQLGLEAKKIMDQGGLVSDDIMVNMIKDELTNNPACKNGFILDGFPRTIPQAEKLDQMLKEQGTPLEKAIELKVDDELLVARITGRLIHPASGRSYHKIFNPPKEDMKDDVTGEALVQRSDDNADALKKRLAAYHAQTEPIVDFYKKTGIWAGVDASQPPATVWADILNKLGKD				1.8%	
R134Y: single amino acid mutant of SEQID-00338 at substrate binding position 134 (protein, listed as Saccharomyces cerevisiae, strain ATCC 204508 / S288c) MSSSESIRMVLIGPPGAGKGTQAPNLQERFHAAHLATGDMLRSQIAKGTQLGLEAKKIMDQGGLVSDDIMVNMIKDELTNNPACKNGFILDGFPRTIPQAEKLDQMLKEQGTPLEKAIELKVDDELLVARITGYLIHPASGRSYHKIFNPPKEDMKDDVTGEALVQRSDDNADALKKRLAAYHAQTEPIVDFYKKTGIWAGVDASQPPATVWADILNKLGKD				0.2%	
SEQID-00265: nutritive polypeptide (protein, listed as Bos taurus) SEGDRLRVELAEKANKLQNELDNVSTLLEEAEKKGIKFAKDAAGLESQLQDTQELLQEETRQKLNLSSRIRQLEEERSSLQEQQEEEEEARRSLEKQLQALQAQLTDTKKKVDDDLGTIENLEEAKKKLLKDVEVLSQRLEEKALAYDKLEKTKTRLQQELDDLLVDLDHQRQIVSNLEKKQKKFDQLLAEEKNISARYAEERDRAEAEAREKETKALSLARALEEALEAREEAERQNKQLRADMEDLMSSKDDVGKNVHELEKSKRALE	29 min	>95	95 mg/mL		pH Range where Protein is >80% detected as Soluble and A650 <1 OD: Low ([5]; lower pH of range): 5.1; pH Range where Protein is >80% detected as Soluble and A650 <1 OD: Other ([5]; other pH where soluble): 3; pH Range where Protein is >80% detected as Soluble and A650 <1 OD: High ([5]; upper pH of range): 9.1

Reference: patent publication US20260069656A1, “Nutritive Polypeptides and Formulations Thereof, and Methods of Production and Use Thereof” (Axcella Health Inc., priority 2013, published 2026)
